Results reported in patent US20040146519A1.

What follows are substances tested against HLA-A*2401 (human) (assay: inhibition of 125I probe peptide binding to purified HLA).

| relative binding ratio | Substance |
| --- | --- |
| 0.0005 | CEA peptide, position 448, 8 amino acids |
| -0.0005 | CEA peptide, position 42, 11 amino acids |
| 0.0002 | CEA peptide, position 248, 10 amino acids |
| 0.0002 | CEA peptide, position 390, 10 amino acids |
| 0.0006 | CEA peptide, position 137, 8 amino acids |
| 0.03 | CEA peptide, position 27, 10 amino acids |
| 0.0003 | CEA peptide, position 94, 8 amino acids |
| 0.0009 | CEA peptide, position 356, 8 amino acids |
| 0.001 | CEA peptide, position 118, 8 amino acids |
